# How the values were obtained:
# [1] = molecular target: recombinant USP7 TRAF domain (residues 62–205) (UniProt Q93009 62-205); test: ITC
# [2] = molecular target: recombinant USP7 UBL1-2 (residues 535–775) (UniProt Q93009 535-775); test: ITC
# recombinant USP7 UBL1-2 (residues 535–775), sequence (Q93009 535-775): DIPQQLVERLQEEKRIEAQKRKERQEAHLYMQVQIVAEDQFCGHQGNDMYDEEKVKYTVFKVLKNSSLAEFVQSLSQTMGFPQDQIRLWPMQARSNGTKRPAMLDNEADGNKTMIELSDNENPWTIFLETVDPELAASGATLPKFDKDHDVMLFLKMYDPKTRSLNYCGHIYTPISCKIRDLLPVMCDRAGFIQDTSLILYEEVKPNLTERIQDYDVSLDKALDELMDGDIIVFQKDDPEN
# recombinant USP7 TRAF domain (residues 62–205), sequence (Q93009 62-205): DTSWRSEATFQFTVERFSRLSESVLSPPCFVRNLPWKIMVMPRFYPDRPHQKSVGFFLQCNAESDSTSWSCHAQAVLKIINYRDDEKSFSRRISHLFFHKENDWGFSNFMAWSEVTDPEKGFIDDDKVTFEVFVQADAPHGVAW
Binder,Kd [1] [µM],Kd [2] [µM]
SPCEPGTSGFN [Pol ι peptide 573–584],4.8,
SGKHSFKMKDT [Pol ι peptide 438–448],,169
